Test results taken from article PMC4702668.

Assays:
[1] = target: B41 SOSIP.664 trimer (HIV-1); experiment: cross-linking
[2] = target: BG505 SOSIP.664 trimer, unmodified (HIV-1); experiment: cross-linking

| Substance | stoichiometry N [1] | stoichiometry N [2] |
| --- | --- | --- |
| B41 SOSIP.664 trimer (complex) | 3 | – |
| BG505 SOSIP.664 trimer, unmodified (complex) | – | 3 |
